Molecular target: the molecule itself
Assay: cryo-EM structure; detergent-solubilized raw ghost membrane of human RBC reconstituted into MSP1E3D1 nanodiscs (POPC:POPE:POPG), enriched on Superose 6 in 20 mM Tris-HCl pH 7.5, 100 mM NaCl; Build and Retrieve processing; OF-IF and IF-IF dimers

B1: human band 3 anion transporter (natural protein, UniProt P02730 1-911, looked up)
chain: MEELQDDYEDMMEENLEQEEYEDPDIPESQMEEPAAHDTEATATDYHTTSHPGTHKVYVELQELVMDEKNQELRWMEAARWVQLEENLGENGAWGRPHLSHLTFWSLLELRRVFTKGTVLLDLQETSLAGVANQLLDRFIFEDQIRPQDREELLRALLLKHSHAGELEALGGVKPAVLTRSGDPSQPLLPQHSSLETQLFCEQGDGGTEGHSPSGILEKIPPDSEATLVLVGRADFLEQPVLGFVRLQEAAELEAVELPVPIRFLFVLLGPEAPHIDYTQLGRAAATLMSERVFRIDAYMAQSRGELLHSLEGFLDCSLVLPPTDAPSEQALLSLVPVQRELLRRRYQSSPAKPDSSFYKGLDLNGGPDDPLQQTGQLFGGLVRDIRRRYPYYLSDITDAFSPQVLAAVIFIYFAALSPAITFGGLLGEKTRNQMGVSELLISTAVQGILFALLGAQPLLVVGFSGPLLVFEEAFFSFCETNGLEYIVGRVWIGFWLILLVVLVVAFEGSFLVRFISRYTQEIFSFLISLIFIYETFSKLIKIFQDHPLQKTYNYNVLMVPKPQGPLPNTALLSLVLMAGTFFFAMMLRKFKNSSYFPGKLRRVIGDFGVPISILIMVLVDFFIQDTYTQKLSVPDGFKVSNSSARGWVIHPLGLRSEFPIWMMFASALPALLVFILIFLESQITTLIVSKPERKMVKGSGFHLDLLLVVGMGGVAALFGMPWLSATTVRSVTHANALTVMGKASTPGAAAQIQEVKEQRISGLLVAVLVGLSILMEPILSRIPLAVLFGIFLYMGVTSLSGIQLFDRILLLFKPPKYHPDVPYVKRVKTWRMHLFTGIQIICLAVLWVVKSTPASLALPFVLILTVPLRRVLLPLIFRNVELQCLDADDAKATFDEEEGRDEYDEVAMPV
modifications: N-linked N-acetylglucosamine (NAG) at N642
notes: band 3 anion transporter (AE1), human erythrocyte form of 911 amino acids, encoded by SLC4A1; endogenous protein from ghost membranes; the model of each subunit holds residues 372-888 except 743-751; Native protein from a crude membrane extract, identified from the cryo-EM maps (Build and Retrieve, Model Angelo); PC and PIP2 lipids lie at the subunit interface; also called band 3 transporter; …
stoichiometry N: 2

Reference: article PMC11338459, “Cryo-EM structures of the human band 3 transporter indicate a transport mechanism involving the coupled movement of chloride and bicarbonate ions” (PLOS Biology, 2024)
